Reference: US20180327752A1 (Stanford University, published 2018)

Legend:
c-MET (Homo sapiens) = c-MET (Homo sapiens) (UniProt P08581); assay: Flow cytometry surface staining of HAP1 WT cells with the isotype control, SSC against PE
FGFR1 = assay: Flow cytometry surface staining of HAP1 WT cells with the isotype control, SSC against FITC
[1] = target: T1, AAV2 particles (adeno-associated virus serotype 2 capsid) (adeno-associated virus serotype 2, UniProt P03135 1-735); assay: cell-based or functional assay
[2] = target: T1, AAV2 particles (adeno-associated virus …); assay: ELISA: plates coated with AAV2 virus-like particles, soluble AAVR (MBP-PKD1-5) detected with anti-MBP-HRP, A450
[3] = target: T1, AAV2 particles (adeno-associated virus …); assay: SPR (BIAcore X): His-tagged soluble AAVR immobilised at 4 nM ligand concentration, AAV-2 particles as analyte, Langmuir 1:1 fit
[4] = target: T1, AAV2 particles (adeno-associated virus …); assay: SPR (BIAcore X), His-tagged soluble AAVR immobilised on CM5 chip, AAV-2 particles as analyte, Langmuir 1:1 fit
[5] = target: T1, AAV2 particles (adeno-associated virus …); assay: SPR (BIAcore X): His-tagged soluble AAVR immobilised at 2 nM ligand concentration, AAV-2 particles as analyte, Langmuir 1:1 fit

T1 sequence (P03135 whole entry): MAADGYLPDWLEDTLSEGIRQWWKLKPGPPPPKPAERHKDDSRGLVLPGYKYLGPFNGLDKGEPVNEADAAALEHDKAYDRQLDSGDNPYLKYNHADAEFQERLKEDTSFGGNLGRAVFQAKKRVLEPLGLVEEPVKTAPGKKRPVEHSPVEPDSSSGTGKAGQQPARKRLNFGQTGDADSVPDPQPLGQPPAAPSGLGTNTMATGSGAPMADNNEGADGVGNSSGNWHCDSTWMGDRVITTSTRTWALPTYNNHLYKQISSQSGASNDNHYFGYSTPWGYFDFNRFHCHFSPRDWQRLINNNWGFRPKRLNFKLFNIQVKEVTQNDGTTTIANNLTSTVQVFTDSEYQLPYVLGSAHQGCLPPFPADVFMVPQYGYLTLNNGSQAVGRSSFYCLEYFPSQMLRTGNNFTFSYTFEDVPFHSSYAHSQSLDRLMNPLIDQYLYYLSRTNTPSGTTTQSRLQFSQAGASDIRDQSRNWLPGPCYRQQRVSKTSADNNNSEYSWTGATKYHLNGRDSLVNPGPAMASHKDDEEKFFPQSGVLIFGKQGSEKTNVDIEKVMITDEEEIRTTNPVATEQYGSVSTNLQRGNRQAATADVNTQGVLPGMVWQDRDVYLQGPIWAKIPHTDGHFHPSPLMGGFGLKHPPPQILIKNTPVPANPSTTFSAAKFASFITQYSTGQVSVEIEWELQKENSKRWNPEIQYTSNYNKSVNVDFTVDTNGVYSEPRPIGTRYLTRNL

Work on isotype (PE row) (antibody) yielded a % of cells in the positive gate (c-MET (Homo sapiens)) of 0.68%.

isotype (FITC row) (antibody) gave a % of cells in the positive gate (FGFR1) of 0.28%.

B1: soluble AAVR (E. coli-expressed recombinant fusion between maltose-binding protein and AAVR PKD domains 1-5) (receptor)
chain: VSAGESVQITLPKNEVQLNAYVLQEPPKGETYTYDWQLITHPRDYSGEMEGKHSQILKLSKLTPGLYEFKVIVEGQNAHGEGYVNVTVKPEPRKNRPPIAIVSPQFQEISLPTTSTVIDGSQSTDDDKIVQYHWEELKGPLREEKISEDTAILKLSKLVPGNYTFSLTVVDSDGATNSTTANLTVNKAVDYPPVANAGPNQVITLPQNSITLFGNQSTDDHGITSYEWSLSPSSKGKVVEMQGVRTPTLQLSAMQEGDYTYQLTVTDTIGQQATAQVTVIVQPENNKPPQADAGPDKELTLPVDSTTLDGSKSSDDQKIISYLWEKTQGPDGVQLENANSSVATVTGLQVGTYVFTLTVKDERNLQSQSSVNVIVKEEINKPPIAKITGNVVITLPTSTAELDGSKSSDDKGIVSYLWTRDEGSPAAGEVLNHSDHHPILFLSNLVEGTYTFHLKVTDAKGESDTDRTTVEVKPDPR
notes: Used in the ELISA on AAV2 VLPs and in the neutralization assay; also called rAAVR1-5; MBP-AAVR PKD 1-5
In the case of B1, the “IC50 (read off the curve)” value [1] is reported as ~20 nM and the “EC50 (read off the curve)” value [2] is reported as ~100 nM.

B2: His-tagged soluble AAVR (His-tagged MBP fusion with AAVR PKD domains 1-5) (receptor)
chain: B1 chain
notes: Construct immobilised on the CM5 chip for SPR; also called AAVR (SPR ligand); not shown: His tag
Molecule B2 has a Kd [3] of 150 nM, a koff [3] of 0.0029 s⁻¹ and a kon [3] of 18000 M⁻¹ s⁻¹. It also gave a Kd [4] of ~150 nM, a Kd [5] of 140 nM and a koff [5] of 0.0023 s⁻¹. It also gave a kon [5] of 20000 M⁻¹ s⁻¹.
